B1: Merlin (Homo sapiens), P35240-3 (parent)
chain: MAGAIASRMSFSSLKRKQPKTFTVRIVTMDAEMEFNCEMKWKGKDLFDLVCRTLGLRETWFFGLQYTIKDTVAWLKMDKKVLDHDVSKEEPVTFHFLAKFYPENAEEELVQEITQHLFFLQVKKQILDEKIYCPPEASVLLASYAVQAKYGDYDPSVHKRGFLAQEELLPKRVINLYQMTPEMWEERITAWYAEHRGRARDEAEMEYLKIAQDLEMYGVNYFAIRNKKGTELLLGVDALGLHIYDPENRLTPKISFPWNEIRNISYSDKEFTIKPLDKKIDVFKFNSSKLRVNKLILQLCIGNHDLFMRRRKADSLEVQQMKAQAREEKARKQMERQRLAREKQMREEAERTRDELERRLLQMKEEATMANEALMRSEETADLLAEKAQITEEEAKLLAQKAAEAEQEMQRIKATAIRTEEEKRLMEQKVLEAEVLALKMAEESERRAKEADQLKQDLQEAREAERRAKQKLLEIATKPTYPPMNPIPAPLPPDIPSFNLIGDSLSFDFKDTDMKRLSMEIEKEKVEYMEKSKHLQEQLNELKTEIEALKLKERETALDILHNENSDRGGSSKHNTIKKPQAQGRRPICI

Assays:
[1] = variants of: B1; conditions: with eif3c_human EIF3C
HGS, O14964-2 = variants of: B1; conditions: with HGS
Chain of HGS, O14964-2 (O14964 other isoform, or with tags, fused parts or gaps): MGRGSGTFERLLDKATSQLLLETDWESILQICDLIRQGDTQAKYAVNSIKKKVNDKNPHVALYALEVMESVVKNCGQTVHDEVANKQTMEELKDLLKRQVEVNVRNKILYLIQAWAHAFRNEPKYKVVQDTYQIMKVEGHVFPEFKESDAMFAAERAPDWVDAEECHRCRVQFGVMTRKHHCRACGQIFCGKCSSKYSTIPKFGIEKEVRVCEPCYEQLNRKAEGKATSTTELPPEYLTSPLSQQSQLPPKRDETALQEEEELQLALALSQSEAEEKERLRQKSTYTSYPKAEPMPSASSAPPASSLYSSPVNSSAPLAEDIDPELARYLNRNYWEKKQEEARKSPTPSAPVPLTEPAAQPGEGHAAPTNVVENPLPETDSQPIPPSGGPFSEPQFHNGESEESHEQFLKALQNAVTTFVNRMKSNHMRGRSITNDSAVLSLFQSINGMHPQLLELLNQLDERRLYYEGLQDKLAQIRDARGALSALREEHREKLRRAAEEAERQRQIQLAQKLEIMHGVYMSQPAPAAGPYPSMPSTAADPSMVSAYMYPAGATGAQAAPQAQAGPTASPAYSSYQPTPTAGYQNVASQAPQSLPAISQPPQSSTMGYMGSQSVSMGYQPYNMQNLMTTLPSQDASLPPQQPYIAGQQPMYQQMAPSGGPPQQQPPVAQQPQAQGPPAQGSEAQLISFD

HGS, O14964-1 = variants of: B1; conditions: with HGS
Chain of HGS, O14964-1 (O14964 whole entry): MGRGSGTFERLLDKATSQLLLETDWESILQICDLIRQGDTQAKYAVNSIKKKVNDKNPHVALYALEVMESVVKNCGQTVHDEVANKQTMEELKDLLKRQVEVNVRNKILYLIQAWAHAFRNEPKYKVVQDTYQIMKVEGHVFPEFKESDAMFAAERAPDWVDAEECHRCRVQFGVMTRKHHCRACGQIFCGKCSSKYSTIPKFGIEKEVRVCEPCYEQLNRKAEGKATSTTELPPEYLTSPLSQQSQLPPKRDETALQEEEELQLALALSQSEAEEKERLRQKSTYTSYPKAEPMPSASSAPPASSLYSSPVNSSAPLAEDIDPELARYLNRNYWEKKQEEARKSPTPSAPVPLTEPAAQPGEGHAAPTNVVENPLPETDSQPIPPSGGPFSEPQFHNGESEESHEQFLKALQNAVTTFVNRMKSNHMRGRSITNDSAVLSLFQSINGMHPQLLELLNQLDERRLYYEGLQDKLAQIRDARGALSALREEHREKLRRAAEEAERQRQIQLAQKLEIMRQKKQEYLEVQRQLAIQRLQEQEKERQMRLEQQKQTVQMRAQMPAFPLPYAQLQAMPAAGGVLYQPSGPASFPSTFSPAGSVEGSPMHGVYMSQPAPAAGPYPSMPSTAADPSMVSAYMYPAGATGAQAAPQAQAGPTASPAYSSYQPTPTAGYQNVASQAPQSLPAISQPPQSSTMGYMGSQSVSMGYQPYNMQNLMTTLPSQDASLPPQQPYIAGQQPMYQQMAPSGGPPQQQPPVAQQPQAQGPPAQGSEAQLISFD

NF2, P35240-1 = variants of: B1; conditions: with NF2, P35240-1
[2] = variants of: B1; conditions: with sptb2_human SPTBN1, Q01082
Chain of sptb2_human SPTBN1, Q01082 (Q01082 whole entry): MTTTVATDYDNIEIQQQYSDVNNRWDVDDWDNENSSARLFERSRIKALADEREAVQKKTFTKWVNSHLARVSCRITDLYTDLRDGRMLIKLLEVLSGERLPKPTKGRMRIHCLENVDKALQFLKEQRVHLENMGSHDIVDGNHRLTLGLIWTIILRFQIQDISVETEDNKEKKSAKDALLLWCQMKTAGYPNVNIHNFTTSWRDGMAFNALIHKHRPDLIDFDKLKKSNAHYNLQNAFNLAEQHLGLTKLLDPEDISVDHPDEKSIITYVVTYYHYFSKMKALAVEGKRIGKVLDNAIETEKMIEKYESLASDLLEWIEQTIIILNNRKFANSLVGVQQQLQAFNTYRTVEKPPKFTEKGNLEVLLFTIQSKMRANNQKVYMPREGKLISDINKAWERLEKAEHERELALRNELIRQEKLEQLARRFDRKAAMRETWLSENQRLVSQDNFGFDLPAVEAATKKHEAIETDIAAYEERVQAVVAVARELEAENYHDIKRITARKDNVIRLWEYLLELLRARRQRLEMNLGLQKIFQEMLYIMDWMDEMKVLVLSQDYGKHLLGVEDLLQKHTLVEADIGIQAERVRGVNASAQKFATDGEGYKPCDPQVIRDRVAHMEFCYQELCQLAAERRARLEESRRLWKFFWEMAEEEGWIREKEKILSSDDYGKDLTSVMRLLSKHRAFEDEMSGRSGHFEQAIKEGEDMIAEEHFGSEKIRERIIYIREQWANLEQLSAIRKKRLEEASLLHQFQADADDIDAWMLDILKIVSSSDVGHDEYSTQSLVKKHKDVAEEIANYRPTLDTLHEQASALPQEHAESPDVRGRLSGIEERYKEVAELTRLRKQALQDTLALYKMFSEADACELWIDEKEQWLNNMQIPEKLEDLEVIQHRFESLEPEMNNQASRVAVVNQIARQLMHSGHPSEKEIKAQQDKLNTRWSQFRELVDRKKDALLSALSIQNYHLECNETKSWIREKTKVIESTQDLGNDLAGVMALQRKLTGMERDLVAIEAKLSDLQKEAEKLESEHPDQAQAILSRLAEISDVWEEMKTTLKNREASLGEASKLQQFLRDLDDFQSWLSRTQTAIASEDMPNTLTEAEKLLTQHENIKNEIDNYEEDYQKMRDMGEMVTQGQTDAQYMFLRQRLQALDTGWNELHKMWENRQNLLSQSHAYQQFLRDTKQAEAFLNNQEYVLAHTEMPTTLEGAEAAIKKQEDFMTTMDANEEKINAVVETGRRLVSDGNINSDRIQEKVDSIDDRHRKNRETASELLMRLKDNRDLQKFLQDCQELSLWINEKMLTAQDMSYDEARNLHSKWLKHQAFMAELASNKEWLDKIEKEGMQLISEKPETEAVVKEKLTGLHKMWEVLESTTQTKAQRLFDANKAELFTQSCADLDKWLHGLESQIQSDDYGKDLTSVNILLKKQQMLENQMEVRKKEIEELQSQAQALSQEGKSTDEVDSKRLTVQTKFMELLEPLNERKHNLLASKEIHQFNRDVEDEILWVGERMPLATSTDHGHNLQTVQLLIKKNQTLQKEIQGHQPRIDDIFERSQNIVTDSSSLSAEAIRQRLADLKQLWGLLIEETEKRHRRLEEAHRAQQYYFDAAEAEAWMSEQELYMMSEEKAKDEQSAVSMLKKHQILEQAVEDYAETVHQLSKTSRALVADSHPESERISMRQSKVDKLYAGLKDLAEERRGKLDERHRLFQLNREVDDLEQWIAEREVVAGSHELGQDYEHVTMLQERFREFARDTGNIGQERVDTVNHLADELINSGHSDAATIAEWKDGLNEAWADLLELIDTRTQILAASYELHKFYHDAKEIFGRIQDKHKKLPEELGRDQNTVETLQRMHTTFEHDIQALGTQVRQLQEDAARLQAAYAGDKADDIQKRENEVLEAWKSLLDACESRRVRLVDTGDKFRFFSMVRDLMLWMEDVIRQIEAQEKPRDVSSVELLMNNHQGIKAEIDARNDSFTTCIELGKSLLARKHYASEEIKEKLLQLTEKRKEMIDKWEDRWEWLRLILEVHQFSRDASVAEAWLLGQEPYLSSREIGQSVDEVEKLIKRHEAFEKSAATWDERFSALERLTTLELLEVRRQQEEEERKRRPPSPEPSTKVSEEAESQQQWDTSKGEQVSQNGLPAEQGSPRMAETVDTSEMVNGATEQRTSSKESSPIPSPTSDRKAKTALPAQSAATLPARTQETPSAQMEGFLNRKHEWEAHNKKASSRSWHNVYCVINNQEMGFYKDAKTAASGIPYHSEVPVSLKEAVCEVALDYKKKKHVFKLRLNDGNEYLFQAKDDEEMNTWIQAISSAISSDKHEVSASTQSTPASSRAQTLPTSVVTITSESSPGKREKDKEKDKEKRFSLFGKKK

G197C
effect of a mutation on the interaction [1]: with no effect
effect of a mutation on the interaction (HGS, O14964-2): with no effect
effect of a mutation on the interaction (HGS, O14964-1): with no effect
effect of a mutation on the interaction (NF2, P35240-1): increasing interaction strength
effect of a mutation on the interaction [2]: decreasing interaction strength

V219M
effect of a mutation on the interaction [1]: with no effect
effect of a mutation on the interaction (HGS, O14964-2): with no effect
effect of a mutation on the interaction (HGS, O14964-1): increasing interaction strength
effect of a mutation on the interaction (NF2, P35240-1): with no effect
effect of a mutation on the interaction [2]: increasing interaction strength

N220Y
effect of a mutation on the interaction [1]: with no effect
effect of a mutation on the interaction (HGS, O14964-2): increasing interaction strength
effect of a mutation on the interaction (HGS, O14964-1): increasing interaction strength
effect of a mutation on the interaction (NF2, P35240-1): with no effect
effect of a mutation on the interaction [2]: increasing interaction strength

I273F
effect of a mutation on the interaction [1]: decreasing interaction strength
effect of a mutation on the interaction (HGS, O14964-2): increasing interaction strength
effect of a mutation on the interaction (HGS, O14964-1): increasing interaction strength
effect of a mutation on the interaction (NF2, P35240-1): with no effect
effect of a mutation on the interaction [2]: increasing interaction strength

T352M
effect of a mutation on the interaction [1]: increasing interaction strength
effect of a mutation on the interaction (HGS, O14964-2): with no effect
effect of a mutation on the interaction (HGS, O14964-1): increasing interaction strength
effect of a mutation on the interaction (NF2, P35240-1): decreasing interaction strength
effect of a mutation on the interaction [2]: decreasing interaction strength

L360P
effect of a mutation on the interaction [1]: increasing interaction strength
effect of a mutation on the interaction (HGS, O14964-2): disrupting interaction strength
effect of a mutation on the interaction (HGS, O14964-1): disrupting interaction strength
effect of a mutation on the interaction (NF2, P35240-1): decreasing interaction strength
effect of a mutation on the interaction [2]: decreasing interaction strength

K364I
effect of a mutation on the interaction [1]: disrupting interaction strength
effect of a mutation on the interaction (HGS, O14964-2): disrupting interaction strength
effect of a mutation on the interaction (HGS, O14964-1): disrupting interaction strength
effect of a mutation on the interaction (NF2, P35240-1): decreasing interaction strength
effect of a mutation on the interaction [2]: disrupting interaction strength

L535P
effect of a mutation on the interaction [1]: disrupting interaction strength
effect of a mutation on the interaction (HGS, O14964-2): disrupting interaction strength
effect of a mutation on the interaction (HGS, O14964-1): disrupting interaction strength
effect of a mutation on the interaction (NF2, P35240-1): decreasing interaction strength
effect of a mutation on the interaction [2]: disrupting interaction strength

Q538P
effect of a mutation on the interaction [1]: increasing interaction strength
effect of a mutation on the interaction (HGS, O14964-2): disrupting interaction strength
effect of a mutation on the interaction (HGS, O14964-1): disrupting interaction strength
effect of a mutation on the interaction (NF2, P35240-1): decreasing interaction strength
effect of a mutation on the interaction [2]: disrupting interaction strength

— IntAct's records for PubMed 11779178
